Assay results: the supplement of paper PMC7877785
± gives the uncertainty stated by the source.

Test: self-splicing fitness, log relative to wild type (ln ratio); higher = more splicing; Tetrahymena group I intron in knt gene, E. coli kanamycin selection, DiMSum; sequences stand for … in CUCUCU…GGAGGGAAAAGUUAUCAGGCAUGCACCUGGUAGCUAGUCUUUAAACCAAUAGAUUGCAUCGGUUUAAAAGGCAAGACCGUCAAAUUGCGGGAAAGGGGUCAACAGCCGUUCAGUACCAAGUCUCAGGGGAAACUUUGAGAUGGCCUUGCAAAGGGUAUGGUAAUAAGCUGACGGACAUGGUCCUAACCACGCAGCCAAGUCCUAAGUCAACAGAUCUUCUGUUGAUAUGGAUGCAGUUCACAGACUAAAUGUCGGUCGGGGAAGAUGUAUUCUUCUCAUAAGAUAUAGUCGGACCUCUCCUUAAUGGGAGCUAGCGGAUGAAGUGAUGCAACACUGGAGCCGCUGGGAACUAAUUUGUAUGCGAAAGUAUAUUGAUUAGUUUUGGAGUACUCGUGGUCG
Method in brief: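 Pooled colonies went to amplicon sequencing on an Illumina HiSeq 2500 after six replicate transformations. The plates were LB agar with 100 μg/mL carbenicillin, 50 μM IPTG and 0.2% rhamnose, with or without 25 μg/mL kanamycin, incubated overnight at 37°C or 30°C. The E. coli BL21(DE3) library had all eight P1ex-region intron nucleotides randomised, the intron placed in the knt kanamycin-resistance gene on pET-22b(+). DiMSum fitness is the error-weighted combination of replicate fold changes, kanamycin against none, normalised to wild type.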

| Sequence | self-splicing fitness (ln) (30 °C) | self-splicing fitness (ln) (37 °C) |
| --- | --- | --- |
| GAUCAGCAAUAUUACGCUGA | -3.83 ± 0.37 | -1.33 ± 0.21 |
| GAUCAGCAAUAUUACGCUUG | -1.02 ± 0.095 | 0.188 ± 0.12 |
| GAUCAGCAAUAUUACGCUUU | -1.02 ± 0.08 | -0.877 ± 0.11 |
| GAUCAGCAAUAUUACGGAUU | -3.32 ± 0.24 | -2.52 ± 0.24 |
| GAUCAGCAAUAUUACGGCGG | -2.43 ± 0.13 | -2.06 ± 0.17 |
| GAUCAGCAAUAUUACGGGCA | -0.237 ± 0.098 | -0.574 ± 0.11 |
| GAUCAGCAAUAUUACGGUCC | -3.7 ± 0.33 | – |
| GAUCAGCAAUAUUACGGUGA | -0.622 ± 0.069 | -0.422 ± 0.075 |
| GAUCAGCAAUAUUACGGUUA | -0.25 ± 0.066 | 0.171 ± 0.067 |
| GAUCAGCAAUAUUACGUCAA | -1.01 ± 0.1 | -0.615 ± 0.14 |
| GAUCAGCAAUAUUACGUCAG | -4.35 ± 0.43 | -2.43 ± 0.28 |
| GAUCAGCAAUAUUACGUGCC | -1.16 ± 0.13 | -0.652 ± 0.24 |
| GAUGAGCAAUAUUACGACGA | -1.5 ± 0.13 | -1.3 ± 0.15 |
| GAUGAGCAAUAUUACGAGCG | -2.62 ± 0.44 | – |
| GAUGAGCAAUAUUACGAUGU | -2.63 ± 0.25 | -2.15 ± 0.35 |
| GAUGAGCAAUAUUACGAUUU | -1.07 ± 0.14 | -2.1 ± 0.18 |
| GAUGAGCAAUAUUACGCUCG | -3.02 ± 0.3 | -2.75 ± 0.38 |
| GAUGAGCAAUAUUACGCUUC | -4.04 ± 0.43 | – |
| GAUGAGCAAUAUUACGGAAU | -3.1 ± 0.23 | -2.66 ± 0.41 |
| GAUGAGCAAUAUUACGGACA | -2.22 ± 0.45 | -3.08 ± 0.47 |
| GAUGAGCAAUAUUACGGAUA | -3.94 ± 0.42 | -2.52 ± 0.26 |
| GAUGAGCAAUAUUACGGCCA | -2.11 ± 0.44 | -0.871 ± 0.24 |
| GAUGAGCAAUAUUACGGCGC | -0.349 ± 0.17 | 0.649 ± 0.25 |
| GAUGAGCAAUAUUACGGGAU | – | -2.36 ± 0.42 |
| GAUGAGCAAUAUUACGGUCG | -2.37 ± 0.12 | -0.405 ± 0.12 |

| Sequence | self-splicing fitness (ln) (30 °C) | self-splicing fitness (ln) (37 °C) |
| --- | --- | --- |
| GAUGAGCAAUAUUACGGUCU | -3.87 ± 0.37 | -3.34 ± 0.26 |
| GAUGAGCAAUAUUACGUAGG | -3.76 ± 0.27 | -1.79 ± 0.26 |
| GAUGAGCAAUAUUACGUCUC | -2.96 ± 0.23 | -1.5 ± 0.41 |
| GAUGAGCAAUAUUACGUCUU | -1.41 ± 0.12 | -0.691 ± 0.12 |
| GAUGAGCAAUAUUACGUGAU | -3.66 ± 0.28 | -2.3 ± 0.24 |
| GAUUAGCAAUAUUACGAAAU | -2.4 ± 0.22 | 1.2 ± 0.2 |
| GAUUAGCAAUAUUACGACCU | -0.343 ± 0.13 | -0.777 ± 0.18 |
| GAUUAGCAAUAUUACGAGAG | -3.5 ± 0.25 | -1.83 ± 0.18 |
| GAUUAGCAAUAUUACGAGGU | -3.27 ± 0.18 | -3.89 ± 0.33 |
| GAUUAGCAAUAUUACGAUCA | -0.826 ± 0.21 | -0.493 ± 0.19 |
| GAUUAGCAAUAUUACGCAAC | -3.22 ± 0.26 | -1.89 ± 0.19 |
| GAUUAGCAAUAUUACGCAGC | -2.35 ± 0.31 | – |
| GAUUAGCAAUAUUACGCAUG | -0.728 ± 0.14 | -0.334 ± 0.17 |
| GAUUAGCAAUAUUACGCGAC | -3.24 ± 0.31 | -2.32 ± 0.23 |
| GAUUAGCAAUAUUACGCGCU | – | -1.92 ± 0.4 |
| GAUUAGCAAUAUUACGCUUG | -0.829 ± 0.079 | -0.445 ± 0.093 |
| GAUUAGCAAUAUUACGGAAC | -2.84 ± 0.36 | -1.7 ± 0.33 |
| GAUUAGCAAUAUUACGGACG | -0.885 ± 0.19 | 0.241 ± 0.16 |
| GAUUAGCAAUAUUACGGCAA | -0.324 ± 0.15 | -0.0501 ± 0.18 |
| GAUUAGCAAUAUUACGGCGC | 0.24 ± 0.072 | 0.233 ± 0.084 |
| GAUUAGCAAUAUUACGGCUA | -0.867 ± 0.099 | -0.414 ± 0.1 |
| GAUUAGCAAUAUUACGGGCU | -2.8 ± 0.15 | -1.28 ± 0.12 |
| GAUUAGCAAUAUUACGGUGA | -1.31 ± 0.11 | -1.24 ± 0.098 |
| GAUUAGCAAUAUUACGGUUA | -0.842 ± 0.14 | 0.0704 ± 0.15 |
| GAUUAGCAAUAUUACGUAAC | -1.94 ± 0.17 | 0.224 ± 0.14 |

| Sequence | self-splicing fitness (ln) (30 °C) | self-splicing fitness (ln) (37 °C) |
| --- | --- | --- |
| GAUUAGCAAUAUUACGUACC | -1.71 ± 0.22 | 0.563 ± 0.21 |
| GAUUAGCAAUAUUACGUCUG | -2.47 ± 0.23 | -1.19 ± 0.16 |
| GAUUAGCAAUAUUACGUGAA | -3.07 ± 0.17 | -1.48 ± 0.14 |
| GAUUAGCAAUAUUACGUGUA | -2.22 ± 0.13 | -1.63 ± 0.14 |
| GAUUAGCAAUAUUACGUUAG | -2.09 ± 0.32 | -2.4 ± 0.45 |
| GAUUAGCAAUAUUACGUUGG | -4.17 ± 0.27 | -2.16 ± 0.18 |
| GAUUAGCAAUAUUACGUUUU | -3.88 ± 0.28 | -1.59 ± 0.16 |
| GCAAAGCAAUAUUACGAACG | -1.46 ± 0.077 | -0.561 ± 0.11 |
| GCAAAGCAAUAUUACGAAUG | -3.4 ± 0.15 | -1.77 ± 0.12 |
| GCAAAGCAAUAUUACGACAC | -0.783 ± 0.099 | -0.461 ± 0.13 |
| GCAAAGCAAUAUUACGAGGA | -2.49 ± 0.13 | -1.83 ± 0.14 |
| GCAAAGCAAUAUUACGAUGU | -2.89 ± 0.15 | -1.93 ± 0.17 |
| GCAAAGCAAUAUUACGCCAG | -2.38 ± 0.15 | -3.19 ± 0.29 |
| GCAAAGCAAUAUUACGCCUC | -2.69 ± 0.12 | -1.86 ± 0.16 |
| GCAAAGCAAUAUUACGCGCA | -0.918 ± 0.096 | -0.0967 ± 0.092 |
| GCAAAGCAAUAUUACGGAAC | -1.63 ± 0.18 | -0.635 ± 0.17 |
| GCAAAGCAAUAUUACGGCGA | -0.683 ± 0.067 | -0.115 ± 0.084 |
| GCAAAGCAAUAUUACGGGAU | -1.93 ± 0.067 | -0.98 ± 0.097 |
| GCAAAGCAAUAUUACGGGGC | -4.05 ± 0.34 | -3.13 ± 0.31 |
| GCAAAGCAAUAUUACGGGUG | -1.23 ± 0.047 | -1.23 ± 0.057 |
| GCAAAGCAAUAUUACGGUCA | -1.12 ± 0.083 | -0.197 ± 0.087 |
| GCAAAGCAAUAUUACGUACA | -1.31 ± 0.11 | -0.858 ± 0.13 |
| GCAAAGCAAUAUUACGUGAG | -1.11 ± 0.046 | -0.539 ± 0.067 |
| GCAAAGCAAUAUUACGUUAG | -3.02 ± 0.13 | -1.82 ± 0.14 |
| GCACAGCAAUAUUACGAAAA | -1.7 ± 0.1 | -1.09 ± 0.12 |

| Sequence | self-splicing fitness (ln) (30 °C) | self-splicing fitness (ln) (37 °C) |
| --- | --- | --- |
| GCACAGCAAUAUUACGAAUG | -1.89 ± 0.051 | -1.09 ± 0.063 |
| GCACAGCAAUAUUACGACAG | -2.97 ± 0.25 | -1.8 ± 0.23 |
| GCACAGCAAUAUUACGACAU | -0.894 ± 0.011 | -0.217 ± 0.032 |
| GCACAGCAAUAUUACGACCC | 0.615 ± 0.18 | 0.472 ± 0.25 |
| GCACAGCAAUAUUACGAGCU | -2.63 ± 0.11 | -1.07 ± 0.1 |
| GCACAGCAAUAUUACGAUAU | -0.993 ± 0.056 | -0.54 ± 0.071 |
| GCACAGCAAUAUUACGCAAC | -2.31 ± 0.17 | -1.03 ± 0.19 |
| GCACAGCAAUAUUACGCAAU | -1.14 ± 0.1 | -0.864 ± 0.087 |
| GCACAGCAAUAUUACGCCCA | -1.72 ± 0.27 | -0.754 ± 0.24 |
| GCACAGCAAUAUUACGCCGU | -1.51 ± 0.1 | 0.145 ± 0.14 |
| GCACAGCAAUAUUACGCCUC | -0.836 ± 0.065 | -0.337 ± 0.074 |
| GCACAGCAAUAUUACGCGAG | -2.41 ± 0.092 | -0.669 ± 0.084 |
| GCACAGCAAUAUUACGCUUA | -0.908 ± 0.065 | -0.871 ± 0.062 |
| GCACAGCAAUAUUACGGAUC | -0.505 ± 0.053 | -0.336 ± 0.061 |
| GCACAGCAAUAUUACGGCAU | -1.59 ± 0.095 | -0.16 ± 0.091 |
| GCACAGCAAUAUUACGGCGA | -1.16 ± 0.083 | -0.758 ± 0.095 |
| GCACAGCAAUAUUACGGCGG | -3.29 ± 0.19 | -2.78 ± 0.25 |
| GCACAGCAAUAUUACGGGAU | -1.01 ± 0.073 | -1.02 ± 0.087 |
| GCACAGCAAUAUUACGGGGG | -1.97 ± 0.088 | -0.472 ± 0.08 |
| GCACAGCAAUAUUACGUAAU | 0.164 ± 0.059 | -0.0143 ± 0.064 |
| GCACAGCAAUAUUACGUAGA | -0.215 ± 0.049 | 0.62 ± 0.066 |
| GCACAGCAAUAUUACGUCGC | -3.17 ± 0.13 | -1.67 ± 0.12 |
